The target of this test is Dectin-2 on murine bone marrow-derived dendritic cells (mouse) (UniProt Q9JKF4). Put plainly: cell-based or functional assay.

This is an account of results in patent US20210205445A1.

Sequence of UniProt Q9JKF4 (Q9JKF4 whole entry): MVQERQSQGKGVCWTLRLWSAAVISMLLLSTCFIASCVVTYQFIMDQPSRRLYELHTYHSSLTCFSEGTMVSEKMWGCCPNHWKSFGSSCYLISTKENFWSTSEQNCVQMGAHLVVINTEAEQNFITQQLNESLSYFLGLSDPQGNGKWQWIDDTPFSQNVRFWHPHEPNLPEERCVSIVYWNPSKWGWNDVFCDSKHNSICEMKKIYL

In turn, “recombinant Bl-Eng2 (Blastomyces dermatitidis Eng2 expressed in Pichia pastoris, C-terminal Myc-6xHis tag) (ligand)” displayed a Ligand induced IL-6 production by murine BMDC, against Furfurman, Man-Lam and MP98 greater than 100 fold.
